According to article PMC9342896:

Target: aryl hydrocarbon nuclear receptor translocator 2 (ARNT2), in T-REx293 lysate (human (endogenous in T-REx293)) (UniProt Q9HBZ2)
Chain of UniProt Q9HBZ2 (Q9HBZ2 whole entry): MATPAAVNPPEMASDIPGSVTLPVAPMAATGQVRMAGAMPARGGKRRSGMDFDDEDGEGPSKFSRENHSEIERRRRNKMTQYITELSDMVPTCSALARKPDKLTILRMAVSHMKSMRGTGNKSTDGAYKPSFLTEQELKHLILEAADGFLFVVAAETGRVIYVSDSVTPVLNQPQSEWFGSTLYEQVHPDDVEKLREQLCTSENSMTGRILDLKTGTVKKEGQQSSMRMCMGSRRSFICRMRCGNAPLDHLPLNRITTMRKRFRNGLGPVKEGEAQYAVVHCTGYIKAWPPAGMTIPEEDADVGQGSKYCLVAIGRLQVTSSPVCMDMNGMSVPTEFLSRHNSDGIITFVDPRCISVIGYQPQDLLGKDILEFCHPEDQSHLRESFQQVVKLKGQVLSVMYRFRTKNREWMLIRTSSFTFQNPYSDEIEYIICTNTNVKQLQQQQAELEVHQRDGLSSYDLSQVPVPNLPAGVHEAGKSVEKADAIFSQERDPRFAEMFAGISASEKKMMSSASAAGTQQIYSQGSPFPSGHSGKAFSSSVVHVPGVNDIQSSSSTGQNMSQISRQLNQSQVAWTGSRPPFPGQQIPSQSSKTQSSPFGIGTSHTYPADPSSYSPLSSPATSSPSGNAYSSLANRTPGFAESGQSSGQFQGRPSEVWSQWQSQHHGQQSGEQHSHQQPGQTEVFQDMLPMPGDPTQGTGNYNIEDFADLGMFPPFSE

A 6xCME luciferase reporter gene activity compared with WT SIM2s of 50 % reduction was found for “SIM2s-2xHA-3xFLAG W306R variant (natural protein)” in this work.
